According to patent US20020086312A1 (IMMUNEX, published 2002):
Blank lines part the entries; values can stand above or below the molecule they belong to.

Tests used:
[1] = biological target: T1, full-length human RANK (SEQ ID NO:2) (human, UniProt Q9Y6Q6 29-616); assay: cell-based or functional assay
T1 sequence: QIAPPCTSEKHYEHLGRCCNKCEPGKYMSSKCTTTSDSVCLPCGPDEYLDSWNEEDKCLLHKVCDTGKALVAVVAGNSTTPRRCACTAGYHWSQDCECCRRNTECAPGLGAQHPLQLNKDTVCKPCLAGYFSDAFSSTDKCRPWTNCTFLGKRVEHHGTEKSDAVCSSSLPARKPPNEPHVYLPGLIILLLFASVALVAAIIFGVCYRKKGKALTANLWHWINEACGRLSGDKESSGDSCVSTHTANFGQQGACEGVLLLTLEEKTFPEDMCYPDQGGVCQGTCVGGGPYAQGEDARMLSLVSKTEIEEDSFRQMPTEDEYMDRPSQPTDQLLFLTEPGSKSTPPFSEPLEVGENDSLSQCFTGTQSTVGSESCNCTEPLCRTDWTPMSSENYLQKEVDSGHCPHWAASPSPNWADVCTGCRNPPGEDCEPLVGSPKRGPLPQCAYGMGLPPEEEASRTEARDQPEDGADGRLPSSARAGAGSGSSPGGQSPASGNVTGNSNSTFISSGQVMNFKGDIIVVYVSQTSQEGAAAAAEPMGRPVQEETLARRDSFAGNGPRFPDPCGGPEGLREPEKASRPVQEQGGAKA

[2] = biological target: T2, murine RANK, endogenous on RAW 264.7 cells (murine) (UniProt O35305); assay: cell-based or functional assay
T2 sequence: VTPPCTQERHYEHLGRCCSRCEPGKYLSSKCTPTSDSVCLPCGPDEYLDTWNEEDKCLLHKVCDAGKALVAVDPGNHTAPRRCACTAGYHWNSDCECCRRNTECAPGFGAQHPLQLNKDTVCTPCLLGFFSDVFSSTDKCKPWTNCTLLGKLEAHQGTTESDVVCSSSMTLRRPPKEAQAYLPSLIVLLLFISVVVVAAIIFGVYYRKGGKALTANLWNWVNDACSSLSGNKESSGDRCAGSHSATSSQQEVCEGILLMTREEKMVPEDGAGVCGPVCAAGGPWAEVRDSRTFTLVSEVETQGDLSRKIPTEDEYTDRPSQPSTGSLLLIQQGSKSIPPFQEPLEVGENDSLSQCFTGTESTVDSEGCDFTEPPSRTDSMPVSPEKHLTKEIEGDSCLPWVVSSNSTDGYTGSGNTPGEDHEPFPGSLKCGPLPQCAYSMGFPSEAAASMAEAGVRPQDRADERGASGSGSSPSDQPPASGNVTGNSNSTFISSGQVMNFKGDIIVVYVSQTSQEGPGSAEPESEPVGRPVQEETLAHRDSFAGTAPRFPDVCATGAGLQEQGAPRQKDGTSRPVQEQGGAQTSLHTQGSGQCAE

32P incorporation into a c-src-specific substrate by extracts of RANK -/- spleen cells expressing wild-type RANK, after differentiation in CSF-1 and mRANK-L [1]: 15 fold | F-actin ring formation (fluorescent phalloidin staining) in RANK -/- cells expressing wild-type RANK, cultured 5 days with CSF-1 and mRANK-L (% of the cells) [1]: > 50
Molecule: murine RANK-L (mRANK-L, 200 ng/ml in the differentiation medium) (from UniProt O35235 70-316) (ligand)

induction of the MMP-9/luciferase promoter in transfected RAW 264.7 cells, 1 ug/ml for 18 hours [2]: 10 to 15 fold | mouse MMP-9 mRNA in RAW 264.7 cells by quantitative RT-PCR, 200 ng/ml [2]: > 350 fold | mouse TRAP mRNA in RAW 264.7 cells by quantitative RT-PCR, 200 ng/ml [2]: > 250 fold
Molecule: leucine zipper form of murine RANK-L (from UniProt O35235 70-316) (ligand)

luciferase reporter expression from the human TRAP promoter, co-transfected 293/EBNA cells [1]: ~1.5 fold | luciferase reporter expression from the mouse TRAP promoter, co-transfected 293/EBNA cells [1]: ~4 fold | luciferase reporter expression from the murine MMP-9 promoter, co-transfected 293/EBNA cells [1]: 2.5 fold
B1: human full-length RANK-L (SEQ ID NO:6) (ligand)
chain: MRRASRDYTKYLRGSEEMGGGPGAPHEGPLHAPPPPAPHQPPAASRSMFVALLGLGLGQVVCSVALFFYFRAQMDPNRISEDGTHCIYRILRLHENADFQDTTLESQDTKLIPDSCRRIKQAFQGAVQKELQHIVGSQHIRAEKAMVDGSWLDLAKRSKLEAQPFAHLTINATDIPSGSHKVSLSSWYHDRGWAKISNMTFSNGKLIVNQDGFYYLYANICFRHHETSGDLATEYLQLMVYVTKTSIKIPSSHTLMKGGSTKYWSGNSEFHFYSINVGGFFKLRSGEEISIEVSNPSLLDPDQDATYFGAFKVRDID
